# According to PMC4847859:
# Test system: CdpR (Pseudomonas aeruginosa PAO1)
# Experiment: EMSA
substance,measurement,value
pqsH-p (pqsH-cdpR intergenic region),K half,500 nM
